This is an account of results in a protein production outcome set (Wang et al. 2014).

The data set in a line: label from the status in PepcDB records.
“MKREIQVSVFLTFITLAYYLLNSLALEFLGLGFISIPLTILLPASILFERERPNPISRVTYIFSMLWLVFLIYLLTGWALVQFIWFFLDLPCLKILAVSLAALSVSYGVFRARKIEVKRVEIPFPVEESLRFVQLSDIHLGTVRSAGFLKEVSEAVRRVEAAAVLITGDLLDGSRPVDSSIISSLETGAPIFFVSGNHDTYSGDFRSTVSDAGIMCIDQSVIEFEGIQIIGVGYSMERHSLPAILDLLEFDEDRPVLLLHHLPVDWEDARERGVDLQLSGHTHGGQFYPFNIIVGLMFPFLRGLYSDSGGFLYVSEGTGTWGPPVRLGSSCEITVIDLVPFKEI”: the protein production result was “failed”.

“MSLGHGDEGITPLSSEIVNFSTTVWTDGDKDHLEKHLVENLNCIRHYPEPDAGTLRQMLAKRNSVDNNAILVTNGPTAAFYQIAQAFRGSRSLIAIPSFAEYEDACRMYEHEVCFYPSNEDIGEADFSNMDFCWLCNPNNPDGRLLQRTEILRLLNDHPDTTFVLDQSYVSFTTEEVIRPADIKGRKNLVMVYSFSHAYGIPGLRIGYIVANKDFMKRVAAFSTPWAVNALAIEAAKFILIHPAQFTLPIRKWQRNTVDFITALNRLDGVEVHPSGTTFFLLRLKKGTAAELKKYMLEEYNMLIRDASNFRGLDESYVRITTQRPAQNQLFIKALETFLEKYEGHHHHHH”: the protein production entry was “not failed”. For the sequence “METISKEFKSKVSLFWEAFNKNDFESAKTQCNQMKKSFSDEANPHYLLGIIYFEEKRFDKSIIELKLALKKDSERKLGGYIYYVIGLNYSKNTFSNMENLNSIYDIELARNAFESALTYENFNESNITELSQIYRNKFKLIQLFQKGLKKFPTKTSFYIKLSAIYKKNGNISERESLLLDAKENIKSFHILFELGELYLEKSQYKCSREHFYLAEKLREGSGLEFAVQVMIGNTHVNEGNPNLANEYYINAFHKEKNSCNFWFGLFGILASSAETSFADLKNILEEMEVTSQLTIEEWYGEMPLYYGSNYFSFDFPIDEKHLINRLNLFKKQQRDTDILGKIELIKASLYEFSSEDTKYIKCLKSAINYFSQHSYDFIFNKLAARYDYLLSHLQEEGKSVNTLINEIVDYLEDDYSFRKEYIEYLPTIVTILFEEKKHKKIIEIKNIFTEKQIDKADIWFHVGYAFNELGRPKESKYAYECNIKINGECTSTHNNLALLLENEGKNSDAVAMFQKALMINVDDEKLQSNLQNALDKQKAKSLLTYKNEAIDKSFVGAVGLLKSETFFSMETLLNFIDRSKKENSFNDGILSIQDEMFPDLLRTNLVKSLELKNDWLIKNYIALTEEIDEYGIPYYQVNPYLEPEIVKLKRMTVESELPKEWTEGIGNITIFKLDELDYFSIKHKISKINKKFKPLVMRDFNELIFNHLVGNRKAVVVLSGSFVELLLTYYCEKKRIKAVEYTCKDSAKPKKKKLYDCVLFDLISFIEEKRIFGNDFFLLSNLSRVYRNFIHPGVELKNSLDKSKSDLCFISSLEILKKII”, the protein production result is reported as “failed”. The value for “MSLTGFWHDDFNNATPNDICVAIRSEAADAGIAQAIMQQLEEALKQLAQGSGSSQALTQVRRWDSACQKLPDANLALISVAGEYAAELANQALDRNLNVMMFSDNVTLEDEIQLKTRAREKGLLVMGPDCGTSMIAGTPLAFANVMPEGNIGVIGASGTGIQELCSQIALAGEGITHAIGLGGRDLSREVGGISALTALEMLSADEKSEVLAFVSKPPAEAVRLKIVNAMKATGKPTVALFLGYTPAVARDENVWFASSLDEAARLACLLSRVTARRNAIAPVSSGFICGLYTGGTLAAEAAGLLAGHLGVEADDTHQHGMMLDADSHQIIDLGDDFYTVGRPHPMIDPTLRNQLIADLGAKPQVRVLLLDVVIGFGATADPAASLVSAWQKACAARLDNQPLYAIATVTGTERDPQCRSQQIATLEDAGIAVVSSLPEATLLAAALIHPLSPAAQQHTPSLLENVAVINIGLRSFALELQSASKPVVHYQWSPVAGGNKKLARLLERLQGHPHHH” was “not failed”; that for “MQGIGEGVRRAFPIVLGYVPVGFAFGVLALKSGIPAWGALAMSLFVFAGSGQLIAVGLIGGGAPLASVVLTTFVVNLRHLLMSAALAPRLRDWGLLRQALFSAEMTDETFAVHVSTLRGEADDPSRAAVFACNVTAHAAWVGGSALGVFCSTLVADVRPLGLDYALAAMFIALLLPQCRSRAHLFAALVAGACSVGFALSGAGRWNVMLATVCAATLVSLLPVGKTSTTREEMGTPGGEGGAHAD” was “failed”; that for “MVKDKQKAIFSENLNSYIAKSEKTQLEIAKSIGVSPQTFNTWCKGIAIPRMGKVQALADYFNINKSDLIEDKKLNIDTVPIESGYTIPVLGRVAAGYGKEAVEEVIGQIEISPSMAAKGDYFGLLIKGDSMIPTLYDGDTVIVERTDDAESGDLVIALVNGSDATCKRLQKYAEGIALIPQNPVYEPMRFTESEIDTTPVKILGKVVEMRRKFLEHHHHHH” was “not failed”. The value for “MATAAASVVSSETGDLRAYMAANPAAVIEEVAKQWNVSPHAVIAALPDGMARLGPGDGFVAAMNDIATWGEVTLIVHTEDAIFEFTGEVPRGEISRGYFNLMQPKGLHGHLRHDRCGALAFVERPFMGKASAFVAFLNRDGGIMFKVFVGRDANRELRADQLARFHALAKQFSEEHSALEHHHHHH” was “failed”; that for “MLNYLIFFPLISAFVVLLLNRGGVKVFSVVVSFMILALNLDTFADFLQGVSFDYNLSFKILKFFSFHVGVDSIALVLMLLSSLMIFLSFLFLKLEQKALISCIFFLEFAIMGLFSAKDGLLFYIFWEFSLLPLLYIMGVYGKDFRAGVKFFIYAFAGSILMLVALIYQAYLNYQLLNIFTFDLEIWKNNASAANFTEQLLLFGAFFIAFAIKAPLFPLHTWAPKVYANSPILVSVMLVVFKMAPFGFLLFCLPLFPDASVYFMPLIVALCIVSIVYNALIAYRAENIKELIAYSSISHLGVMILGIFSLNALGISGAVFYMFAHGIVTGTLFLMVELLYQRYHTYDISFYHSLAKKAPLFSIFFMLILLASVSLPLTVSFVGEFLILLGIAKINLFYALLAGLVIILGAIYMFAVFRKIFFMQKQSFIEGFSLRFREIVALVCIVVMIFGLGLMPNILLKPIQKDVDNLIKTMNIRAVEQNTLDFLSKIGEANVK” was “failed”. Regarding “MSRAGRIAAETRAAWYAFVRRRTAVFFTFFFPVILILIFGALVGTDPTGGGLFAEPAGYYVAGYLAVVVLFTPLSRVGSEVARHRSGNRFEKLATTPLSRAEWLFAQTLVNVVVIGLASLLILGLVLLVTDAAFTFSLLVVPYVALGVALFCGLGAILGRIADSQDGAIAASNGIAIPLLFLSETFVPPALLPEWFVPLLDLSPLTYFARGLRAATYEPVANTGGTGLVGSDPYLNLVVLAAGAVVFFAAGAYALPRTD”, the protein production result was “failed”.

Turning to “MQFIVSKKEFIPPVIAPDIIETLGDDYEIWTYEDYERLPPLLVGVYSYSAIPKCLAPLSTQGLVKSGVFRLQREFVPGLYGNGVYVVVIDTGVNYAQEAFMTPEGKTKIAVLWDQNTDTVYSEDEINAAILSENPYESIPGDEDGHGTFVASVICGNDRPQDDFAGVAPQAKLIVVKLKRAPQKLYDFYFIPDRKMVYSEVDVMRAVHFADEFAGQKGAPAVFCMALGCNNGSHTGAEDLSEYLDYITAKRGRAVVAAAGNEANSRHHYKGRITDTVDDIEINVEQDMDGFYLECWALSPELFTLSVISPSGQSNPAGVPMRIDSGEYSFLLEGTQVTIDYRQTGRQTRDLLIFIRFEKVVKGVWTIRVFPLSTIGGVFNMWLPMTGLLDADVSFIVSEPDTTLTMPSDAKLVITAGGYNSLNDAILLESGRGFDADGGIKPDLVAPAVDITGANLRGMYIALSGTSAAAAITAAVAALIMEWMIVRGNVLLANGVDIKNVMVRNCRRKEKTDYPNKIFGYGFMNGFANF”, the protein production result was “failed”. The value for “MAFASLFTLPDYIAAVLDDVALMTKAAAKKTAGVAGDDLAPNANRVTGVSAERELPIVWPVAKGSFANKPVLVSAALLLSAFLPQLITPLLTAGGIYLCFEGVEKLLHKFLHRHDAHDDGGETAVNEQAKIKGAIRTDFILSAEIIIIALCVVEQYSLMTRSLVMAAIGIGMTVLVYGIVAVIVKLDDLGMLLMRRPQPRPFARFPARATLERWLDRVFRQPRCRAAFRFDCLRPALSLMNRFGRH” was “failed”; that for “MDRLAHMQMFVAVVEAGSITAAAERMNLAKSAVSRRLAELEAGLGVSLIQRTTRRLNLTESGRTYYARCVAILADVEDAEAEVSQGHGALRGRLKVALPQAFGLLHLAPLIQTFMKRHPDVRLELDFNDRQVDLMQEGFDLAIRIATLADSTLIARRLAAIPHRVVASPGYLARRGTPRAAADLTQHDCLAYSNVRDPGLWSYRDPGGEPGQVRVVVRLAASSGEFLLQAAIADEGLVLLPAFYLHAALRSGQLSEVLADHRWPEPAAYAVYPPTRHLSARAHAFIDFLAGHLGGAGEPPAGDEVAPTLAPNTSAG” was “failed”. As for “MINKTLTVTLTSIAALAGLSGLANAQEYTNSTHTTSQQSNTYNSQVEQETNLGLTNKDIVKVKDGDTLYQIALSHHLSLEQLYNFNPGVTALIHPGDLIAVSEKGAAKLENKEINYAQTYAETTAFNQSDVVAQSVSASTTNVTGYNIVPTSAPTNTMHDSYHSSVNTPVSYQHVTTANQGNRYSFGNCTYYAFDRRQQLGRSIGSYWGNANNWAYSAKNAGLTVDNRPEVGAIFQTTAGYYGHVGVVEHVNQDGSVYVSEMNWNGHYNRVTNRTITNTSSYNFIH”, the protein production result is “failed”. Consider “MSVDTTVKNRVYPAIPPTQLPEFETIFGHPKPLWMLFMAEFWERFAFYGIRWALTLYIVTQFFDGNAIGEGNANSTYGAYLALVYASAIFGGFIADRIIGYQRSIIIGAVIMACGLFLITVPSRTMFEIGLATIVIGNGLFKPNISSLVGQLYAEGDTRRDRGFTIFYMGINAGSLISPLITSWLAGQVFGTPMQQNYKVVFIASGIGMFLSLLWFWIGKRQLKGIGLSPKGGESIFRTFLIVFGALLAIPLAYLLLAKLNATTLAWILGLLFAVLATLLIVTALRNGKIQRDRVIAMLIIFVFNVMFWMFFEQAGSSFNFLAKNIVDRQILSNWEFPVGWFQSVNPLAIILLAPIIAVIWSLLDKYRIEPSIPRKFSFGLMFNGFGFLILMYALSNLLNASNMIPFWSLIAVYVIQTVGELCLSPIGLSMVTKLAPVRLVGFAMGGWFLSTAIGNNLSGVFASFVSGEEGMTVSSALRGYTFGFWSLIGSGILLFLISPLINRLMHGVK”, for which the protein production result was “failed”. As for “GSPDPEIFRQRFRQFGYQDSPGPREAVSQLRELCRLWLRPETHTKEQILELVVLEQFVAILPKELQTWVRDHHPENGEEAVTVLEDLESELDD”, the entry is “not failed”. As for “FKVRVGEPGQAGNPALVSAYGTGLEGGTTGIQSEFFINTTRAGPGTLSVTIEGPSKVKMDCQETPEGYKVMYTPMAPGNYLISVKYGGPNHIVGSPFKAKVTGQRLVSPGSANETSSI”, the entry is “not failed”; as for “MAPVIRRAKEIDLYCLNSLMYKLHDEHHQQCPDLFKTASEIEEEKSIARYLDDPECMVYVAEMDDVIIGFITGHFCELISTVSKLVMMATIDELYIEKEYRREGVAEQLMMRIEQELKDYGVKEIFVEVWDFNKGALEFYNKQGLNEHIHYLRKPLNRLEHHHHHH”, “not failed”. “MHIHILGICGTFMGSLALLARALGHTVTGSDANIYPPMSTQLEQAGVTIEEGYLIAHLQPAPDLVVVGNAMKRGMDVIEYMLDTGLRYTSGPQFLSEQVLQSRHVIAVAGTHGKTTTTTMLAWILHYAGIDAGFLIGGVPLVNTTDTNLQQVFAHSSYLGTEKDDSDNSVNTGYFVIEADEYDSAFFDKRSKFVHYRPRTAILNNLEFDHADIFADLDAIQTQFHHMVRMIPSTGKIIMPAATISLEDTLAKGVWTPIWRTSVIDSTISSVRREDSPLENSQAENSSDWQAELISADGSQFTVSFNDNKEATALVNWSMSGLHNVNNALVAIAAAYNIGVSVKTACAALSAFAGIKRRMELIGDVNDILVFDDFAHHPTAITTTLDGAKKKLADRRLWAIIEPRSNTMKMGIHQDSLAQSATLADHTLWYEPTGLEWGLKEVIDNATIANPSIGSQQVLSSVDDIIKHICTHAKAGDAIVIMSNGGFEGIHQRLLTALGNIVAIL”: the protein production entry was “not failed”.
